Experimental data taken from patent publication US20250277057A1 (OKLAHOMA MEDICAL RESEARCH FOUNDATION, published 2025).
Numbering of substitutions follows the chain as printed.

B1: HAPC-14-6 (antibody, V domains shown)
VH: EVQLVESGGGLVQPGGSLRLSCAASGFTFSFYYLNWVRQAPGKGLEWVGDIRLKKNNYEKHYAESVKGRFTISRDDSKSITYLQMNSLRAEDTAVYYCAREGDYFDYWGQGTTVTVSS
VL: DIQLTQSPSSLSASVGDRVTITCRASESVDSFGATFMHWYQQKPGKAPKLLIYLASRLGSGVPSRFSGSGSGTDFTLTISSLQPEDFATYYCQQNNEDPYTFGQGTKLEIK
notes: Whole IgG, backbone hIgG1; also called HPAC 14-6; No. 6
B2: HAPC-14-3 (antibody, V domains shown)
VH: B1 VH
VL: B1 VL with Q93V
notes: Whole IgG, backbone hIgG1; also called HPAC 14-3; No. 3
B3: HAPC1573 (antibody, from another filing, V domains shown)
VH: EVKLEESGGGLVQPGGSMKLSCVASGFTFSNYYLNWVRQSPEKGLEWVADIRLKSNNYEKHYAESVKGRFTISRDDSKSSVYLQMNNLRAEDTGIYYCIREGDYFDYWGQGTTLTVSS
VL: NIVLTQSPASLAVSLGQRATISCRASESVDSFGATFMHWYQQKPGQPPKLLIYLASNLESGVPARFSGSGSRTDFTLTIDPVEADDAATYYCQQNNEDPYTFGGGTKLEIKR
B4: HAPC-14-7 (antibody, V domains shown)
VH: B1 VH with K55S
VL: B1 VL with G59E
notes: Whole IgG, backbone hIgG1; also called HPAC 14-7
B5: HAPC-14-10 (antibody, V domains shown)
VH: B1 VH with F31N, Y104T
VL: B1 VL with Q93V
notes: Whole IgG, backbone hIgG1; also called HPAC 14-10
B6: Humanized antibody 14 (HAPC-14) (antibody, V domains shown)
VH: B1 VH with F31N, K55S
VL: B1 VL with R57N, G59E
notes: also called Humab001-14; NO; 14 antibody
B7: HAPC-14-9 (antibody, V domains shown)
VH: B1 VH with Y104T
VL: B1 VL
notes: Whole IgG, backbone hIgG1; also called HPAC 14-9
B8: Humanized antibody 13 (HAPC-13) (antibody, V domains shown)
VH: B1 VH with F31N, K55S
VL: B1 VL with L4M, R57N, G59E
notes: also called Humab001-13; NO; 13 antibody
B9: Humanized antibody 16 (HAPC-16) (antibody, V domains shown)
VH: B1 VH with F31N, K55S
VL: B1 VL with D1N, Q3V, A47P, R57N, G59E, G72R
notes: also called Humab001-16; NO; 16 antibody

Target: T1, human activated protein C (human, UniProt P04070 43-197; P04070 212-461)
T1 construct: In the plasma assays aPC is generated in human plasma with Protac; also called aPC; haPC
Assay: Octet BLI
Protocol: (§1) Assay method: Octet analysis was carried out at 25° C. using a Protein A Octet biosensor in 1× Kinetics buffer. During the kinetics assay, the baseline step assay was run in 1× Kinetics buffer for 120 seconds, and then run for 240 seconds after the antibody was loaded to the biosensor. Next, the baseline 2 step assay was run in 1× Kinetics buffer for 120 seconds. […] The 1× Kinetics buffer was used as a blank control to show the natural dissociation of the antibody in the buffer. 10 mM glycine at pH 1.5 was used for the regeneration step. Octet data analysis software was used to calculate binding kinetics, and a 1:1 binding model was used for curve fitting.

fold increase of affinity against the unmutated No. 14 antibody HAPC-14 [fold] | Binder
~100 | B1
~100 | B2

Target: human activated protein C (human) (UniProt P04070)
Assay: cell-based or functional assay

Mean clotting time (s), FIX-deficient plasma, APC-antibody concentration 0.5 ug/ml [s] | Mean clotting time (s), FIX-deficient plasma, APC-antibody concentration 1 ug/ml [s] | Mean clotting time (s), FIX-deficient plasma, APC-antibody concentration 5 ug/ml [s] | Mean clotting time (s), FVIII-deficient plasma, APC-antibody concentration 0.5 ug/ml [s] | Mean clotting time (s), FVIII-deficient plasma, APC-antibody concentration 1 ug/ml [s] | Mean clotting time (s), FVIII-deficient plasma, APC-antibody concentration 5 ug/ml [s] | antibody concentration needed to inhibit the anticoagulant activity of aPC, Protac-induced APTT in factor-deficient human plasma [µg/mL] | Binder
584 | 567 | 404 | 600 | 629 | 389 | > 100 | B3

Target: T2, human protein C (human, UniProt P04070 43-461)
T2 construct: Zymogen form, coated on ELISA plates; also called hPC; PC
Assay: ELISA on plate-coated HPC, OD450
Protocol: (§2) The binding abilities of the anti-aPC monoclonal antibodies to haPC/hPC were assayed by Elisa. […] 1. ELISA plates were coated with haPC/hPC (1 ug/mL in PBS), 100 μL/well, at 4° C. overnight. […] 2. The plates were washed 3 times with PBST (0.1% Tween 20), 200 μL/well. […] 3. The plates were blocked with 2% BSA (PBS solution), 200 μL/well, at room temperature for 1 hour. […] 4. The plates were washed 3 times with PBST (0.1% Tween 20), 200 μL/well. […] 5. The plates were incubated with anti-aPC monoclonal antibody as primary antibody (diluted from 10 μg/mL in 2% BSA), 100 μL/well, at room temperature for 1 hour. […] 6. The plates were washed 3 times with PBST (0.1% Tween 20), 200 μL/well. [0200] 7. The plates were incubated with anti-hIgG-Fc antibody-HRP (diluted 5000-fold in 2% BSA buffer) at room temperature for 1 hour. [0201] 8. The plates were washed 6 times with PBST (0.1% Tween 20), 200 μL/well. [0202] 9. The plates were incubated with a TMB substrate (prepared from solutions A and B at 1:1 (v/v)), 100 μL/well, away from light for 10 minutes. […] 10. The reaction was quenched with HCl (1 M), 100 μL/well, and OD450 was read.

binding result | Binder
no binding (tested: 10^2 nM) | B1
no binding (tested: 10^2 nM) | B2
no binding (tested: 10^2 nM) | B4
no binding (tested: 10^2 nM) | B5
no binding (tested: 10^2 nM) | B6
no binding (tested: 10^2 nM) | B7

Target: T1, human activated protein C
Assay: cell-based or functional assay

Mean clotting time (s), FIX-deficient plasma, APC-antibody concentration 0.5 ug/ml [s] | Mean clotting time (s), FIX-deficient plasma, APC-antibody concentration 1 ug/ml [s] | Mean clotting time (s), FIX-deficient plasma, APC-antibody concentration 5 ug/ml [s] | Mean clotting time (s), FVIII-deficient plasma, APC-antibody concentration 0.5 ug/ml [s] | Mean clotting time (s), FVIII-deficient plasma, APC-antibody concentration 1 ug/ml [s] | Mean clotting time (s), FVIII-deficient plasma, APC-antibody concentration 5 ug/ml [s] | Mean clotting time (s), FIX-deficient plasma, APC-antibody concentration 0.05 ug/ml [s] | Mean clotting time (s), FIX-deficient plasma, APC-antibody concentration 0.1 ug/ml [s] | Mean clotting time (s), FVIII-deficient plasma, APC-antibody concentration 0.05 ug/ml [s] | Mean clotting time (s), FVIII-deficient plasma, APC-antibody concentration 0.1 ug/ml [s] | Binder
181 | 198 | 180 | 182 | 187 | 162 |  |  |  |  | B1
208 | 200 | 185 | 205 | 188 | 176 |  |  |  |  | B2
502 | 402 | 326 | 629 | 546 | 301 |  |  |  |  | B8
241 | 145 | 146 | 297 | 198 | 176 |  |  |  |  | B4
331 | 158 |  | 254 |  |  | 733 | 596 | 415 | 309 | B5
457 | 415 | 310 | 574 | 457 | 324 |  |  |  |  | B6
170 |  |  | 182 |  |  | 670 | 611 | 262 | 217 | B7

Target: T2, human protein C
Assay: ELISA on plate-coated HuPC (1 ug/ml), OD450

binding result | Binder
no binding (tested: 100 nM) | B9
no binding (tested: 100 nM) | B8

Target: T1, human activated protein C
Assay: Octet BLI, antibody on Protein A sensor, huAPC 3.13-50 nM, 1:1 model, 25 C, pH 7.4
Protocol: as §1
The affinities of the mutant antibodies were assayed at pH 7.4.

Kd [nM] | koff [s⁻¹] | kon [M⁻¹ s⁻¹] | Binder
3.64 | 0.00108 | 297000 | B1
2.67 | 0.000854 | 320000 | B2
7.72 | 0.00197 | 256000 | B4
19 | 0.00428 | 225000 | B5
254 | 0.0162 | 64000 | B6
9.69 | 0.00238 | 245000 | B7

Target: T1, human activated protein C
Assay: ELISA on plate-coated APC (1 ug/ml), OD 450; EC50 from the table drawn beside the curves; no unit in the table, axis Ab Conc.(nM)

EC50 [nM] | Binder
0.172 | B9
0.199 | B8
0.249 | B6

Target: T1, human activated protein C
Assay: ELISA, plate coated with haPC 1 ug/mL, anti-hIgG-Fc-HRP
Protocol: as §2

EC50 [nM] | Span | Binder
0.0821 | 1.85 | B1
0.0618 | 1.61 | B2
0.13 | 1.58 | B4
0.28 | 0.745 | B5
0.22 | 0.291 | B6
0.0761 | 1.07 | B7

Target: T2, human protein C
Assay: ELISA, plate coated with hPC 1 ug/mL, anti-hIgG-Fc-HRP
Protocol: as §2

Span | Binder
~0.0133 | B1
~0.267 | B2
~0.00661 | B4
~0.00145 | B5
~0.0387 | B6
0.012 | B7
